Laboratory results: PMC7055233

Assays:
[1] = target: MapZ cytoplasmic domain (MapZ_(cyto)), wild type, residues 1-159 (S. pneumoniae (strain ATCC BAA-255/R6)) (UniProt Q8DR55); experiment: NMR titration; 1H-15N BEST-TROSY of 15N MapZ_(cyto) (30 to 50 µM, one sample for each ratio) with unlabelled monomeric FtsZb (no GTP, no MgCl2), 5 °C; peak intensity decrease; apparent constants, 1:1 complex assumed
[2] = target: MapZ cytoplasmic domain (MapZ_(cyto)), wild type, residues 1-159 (S. pneumoniae (strain ATCC BAA-255/R6)) (UniProt Q8DR55); experiment: NMR titration; 1H-15N BEST-TROSY of 30 µM 15N MapZ_(cyto) with polymeric FtsZb at 1:1, 1:3, 1:4 and 1:6; 30 mM HEPES, 200 mM KCl, pH 7.5, 10 mM GTP and MgCl2, 5 °C; peak intensity decrease; apparent constants, 1:1 complex assumed

Chain of UniProt Q8DR55 (Q8DR55 other isoform, or with tags, fused parts or gaps): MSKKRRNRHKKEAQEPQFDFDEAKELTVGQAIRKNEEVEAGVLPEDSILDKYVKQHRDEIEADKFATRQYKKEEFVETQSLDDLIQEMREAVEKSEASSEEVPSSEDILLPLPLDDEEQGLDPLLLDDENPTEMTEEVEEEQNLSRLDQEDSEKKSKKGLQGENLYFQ

Substance “FtsZb, wild-type FtsZ from S. pneumoniae with an N-terminal glycine left after removal of GST by TEV protease (natural protein)” has a Kd [1] of 10 to 100 µM and a Kd [2] of 10 to 100 µM.
